Assay results taken from the RNAGym collection of RNA variant scans (doi:10.1093/nar/gkz1192).

B1: CPEB3 Ribozyme (parent)
chain: UAACAGGGGGCCACAGCAGAAGCGUUCACGUCGCAGCCCCUGUCAGAUUCUGGUGAAUCUGCGAAUUCUGCUGUAUAUCUC

Variants of: B1
Assay: self-cleavage, relative activity (ratio to wild type); higher = more cleavage; in vitro, sequencing
Summary of the method: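 Libraries of CPEB3 self-cleaving ribozyme mutants came from rounds of error-prone PCR and carried barcodes, which DNA sequencing matched to variants. In vitro transcription used T7 RNA polymerase at 37°C for 5 hours, with a further 15 min in DNase I before EDTA stopped the reaction; the ribozymes cleaved during both steps. The RNA was reverse transcribed with template switching and sequenced on Illumina. Relative activity is the cleaved/total read fraction of a variant divided by that of the unmutated ribozyme, averaged over three batches with at least 5 reads.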

Variant | self-cleavage
A2G G33C | 0.32
A2G G33U | 0.3
A2G G46U | 0.3
A2G G46A | 0.28
A2G G6A | 0.59
A2G G6U | 0.68
A3C C81G | 1.19
A2G A77C | 0.54
A2G A77U | 0.62
A2G A77G | 0.64
A2U U80A | 1.14
A2U U80G | 1.06
A2U U80C | 1.09
A3C A28G | 1.09
A3C U76A | 1
A2G U58C | 0.25
A3G A28G | 0.72
A3G A28U | 0.89
A3G A28C | 0.73
A2G C37U | 0.66
A2G C37A | 0.27
A2G A20G | 0.61
A2G A20U | 0.39
A3C G7U | 0.39

Variant | self-cleavage
A2U G16A | 0.18
A3C U67C | 0.33
A2G U25C | 0.49
A2G U25A | 0.36
A2G A56U | 0.31
A2G A56G | 0.5
A3C A77U | 1.03
A2U C39A | 0.42
A2U G19A | 0.29
A2U G33U | 0.32
A2G G52C | 0.83
A2G G52U | 0.77
A2G G52A | 0.65
A2G U74C | 1.12
A2G U74G | 1.01
A2G U74A | 1.07
A2G G7U | 0.42
A2U G8A | 0.27
A2U G8U | 0.28
A2G U69A | 0.33
A2G U69C | 0.32
A2G U69G | 0.46
A3C A47G | 1.12
A3C A45G | 0.93

Variant | self-cleavage
A3C A45U | 0.89
A3C U74A | 1.14
A2G G19A | 0.58
A2G G19U | 0.89
A3C C62U | 0.29
A2U G22A | 0.22
A2G C62A | 0.15
A2G C62U | 0.32
A2U U48C | 0.62
A2G U66C | 0.2
A2G U66G | 0.28
A3C C17U | 0.54
A3G A64G | 0.92
A2G U60C | 0.25
A2G U60A | 0.22
A2G C81U | 0.81
A3C A65U | 0.95
A3C A65G | 0.92
A2G U49C | 0.32
A2G U49A | 0.42
A2G A57U | 0.28
A2G A57G | 0.5
A2U A21G | 0.56
A2U A21U | 0.29

Variant | self-cleavage
A2U U74C | 0.91
A3G A45G | 0.78
A3G A45U | 0.4
A2U C44A | 0.24
A2U A45U | 0.54
A2U A45G | 0.85
A3C C11U | 0.88
A2G G9U | 0.42
A2G G9A | 0.28
A2U C12U | 1.18
A2U C12G | 0.19
A2U C62U | 0.31
A2U C62G | 0.31
A3C G61C | 0.32
A2U G6A | 0.66
A3G A13G | 0.95
A3G A13U | 1.02
A3G A13C | 1.02
A3C A5C | 1.23
A3C A5G | 0.62
A2G U26G | 0.18
A2G U26A | 0.53
A2G U26C | 0.4
A2G G30U | 0.69

Variant | self-cleavage
A2G G30A | 0.39
A3G A18U | 0.44
A3G A18G | 0.73
A3G A18C | 0.46
A2U G42A | 0.43
A3C U51C | 1.12
A3C U51A | 1.19
A2G U78C | 0.58
A2G U78A | 0.75
A2G U41G | 0.49
A2G U41A | 0.42
A2G U41C | 0.78
A2G C79U | 0.82
A2G C79A | 1.01
A3C A20G | 1.05
A3C C44G | 0.84
A3G | 1.02
A3C | 1.16
A2G C34U | 0.29
A2G C34G | 0.1
A2G U54C | 0.58
A2G U54A | 0.66
A2G U54G | 0.51
A3C G46A | 0.25

Variant | self-cleavage
A2U U66C | 0.38
A2U U66A | 0.52
A2G U51C | 0.34
A2G U51G | 0.79
A2G U51A | 0.64
A2G C17U | 0.56
A3C A57G | 1.19
A2U G24A | 0.3
A2U G24U | 0.34
A3C U25A | 0.4
A3C U25C | 0.44
A3C U25G | 0.55
A2U A65G | 0.26
A2U A65U | 0.29
A3C U78C | 1.12
A2G U43A | 1.02
A2G U43C | 0.34
A2G U67A | 0.3
A2G U67C | 0.26
A3C U31G | 0.93
A2G U76C | 0.73
A2G U76A | 0.73
A2G A21C | 0.11
A2G A21G | 0.42

Variant | self-cleavage
A2G A21U | 0.35
A2U A20G | 0.69
A2U A20U | 0.41
A2U A20C | 0.32
A2U A5G | 0.71
A2U A5U | 1.09
A2G C39A | 0.09
A2U A18G | 0.89
A2U A18C | 0.28
A2U A18U | 0.41
A2G G61A | 0.31
A2G G42U | 0.55
A2G G42A | 0.05
A3G A56G | 0.77
A3G A56U | 0.64
A3G A56C | 0.8
A3C C37U | 0.6
A3G A57U | 0.69
A3G A57G | 0.86
A3G A57C | 0.49
A3C A21G | 0.63
A2U G36A | 0.29
A3G A5C | 0.71
A3G A5U | 1.04

Variant | self-cleavage
A3G A5G | 0.76
A3C G24A | 0.29
A2U U25A | 0.09
A2U U25C | 0.37
A3C U43A | 1.24
A3C U43C | 0.81
A2U A28U | 0.82
A2U A28G | 0.65
A2U U58A | 0.35
A2U U58C | 0.42
A2G C32U | 0.3
A2G C32A | 0.1
A2G U31C | 0.41
A2G U31A | 0.43
A2U U76A | 1.14
A2U U76C | 1.15
A3C A56G | 1.12
A3C A56U | 0.65
A2U U43A | 1.05
A2U U43C | 0.47
A3G A35C | 0.9
A3G A35U | 0.64
A3G A35G | 1.21
A2U G70C | 0.31

Variant | self-cleavage
A2G C38U | 0.68
A3C A35G | 1.21
A3C A35U | 0.81
A2U C40G | 0.31
A2U C40U | 0.89
A2U G9A | 0.15
A2U G9C | 0.45
A3G A15G | 0.84
A3G A15U | 0.78
A3G A15C | 0.95
A2G G70A | 0.16
A2G A47C | 0.29
A2G A47G | 0.48
A2G A65U | 0.38
A2G A65G | 0.29
A2U C23U | 0.35
A2G C27A | 0.36
A2G C27U | 0.4
A2G C14U | 0.49
A2G A28C | 0.38
A2G A28G | 0.4
A2G A28U | 0.52
A3C G33C | 0.35
A2U C34U | 0.24

Variant | self-cleavage
A2G U72A | 0.36
A2G U72G | 0.42
A2G U72C | 0.74
A2U U49A | 0.72
A3C U58A | 0.5
A3C U58G | 0.25
A3C U58C | 0.4
A2G C71U | 0.24
A2U U67C | 0.39
A2U U67A | 0.49
A3G A47U | 0.48
A3G A47G | 0.92
A3C A15U | 0.77
A3C A15G | 1.03
A2U U72A | 0.67
A2U U72C | 1.11
A2G A64G | 0.55
A2G A64U | 0.33
A2G G36C | 0.24
A2G G36A | 0.16
A2U | 0.96
A2G A75U | 0.84
A2G A75G | 0.54
A2U C50U | 0.79

Variant | self-cleavage
A2G C12G | 0.38
A2G C12U | 1.04
A2U U54C | 1.13
A2U U54A | 1.15
A2U U54G | 0.77
A3C A75G | 1.14
A2U A35G | 1.19
A2U A35U | 0.49
A2U A35C | 0.85
A2U A56C | 0.73
A2U A56G | 0.88
A2U A56U | 0.4
A2G C68A | 0.11
A2U A57G | 0.83
A3C A18U | 0.73
A3C A18G | 0.64
A3C U69A | 1.08
A2G A35U | 0.37
A2G A35G | 1.21
A2G G8U | 0.11
A2G G8A | 0.3
A3C U72A | 1.09
A2U U26G | 0.5
A2U U26A | 0.87

Variant | self-cleavage
A2U U26C | 0.55
A2U U41A | 0.25
A2U U41C | 1.07
A3C U54C | 1.17
A2U A15G | 0.8
A2U A15U | 0.41
A2G G63U | 0.62
A2U A64G | 0.83
A2U A64U | 0.28
A2G C59A | 0.23
A2G C59G | 0.24
A2G U80A | 0.77
A2G U80C | 0.69
A2G U80G | 0.17
A2U A75G | 1.04
A2U A75U | 1.09
A2G C29U | 0.24
A2G C29A | 0.13
A3C A64G | 1.17
A2G C4U | 1.09
A2G G22A | 0.22
A2G G22U | 0.07
A3C C39U | 1.13
A2G A18U | 0.38

Variant | self-cleavage
A2U U60A | 0.56
A2U U60C | 0.47
A2U U69A | 0.52
A2G G10A | 0.41
A2G G10U | 0.36
A2U C17U | 0.31
A3C U49C | 0.86
A3C U49A | 1.1
A2U A3G | 0.99
A2U A3U | 1.04
A2G C11G | 0.15
A2G C11U | 0.51
A2G G24A | 0.3
A2U A47G | 1.11
A2U A13U | 1.08
A2U A13G | 0.84
A2G A45G | 0.45
A2G A45U | 0.44
A2G A45C | 0.5
A3G A20G | 0.86
A3G A20C | 0.75
A3G A20U | 0.41
A3C U41G | 0.56
A3C U41C | 1.02

Variant | self-cleavage
A3C U41A | 0.24
A3G A21G | 0.73
A3G A21U | 0.49
A2G G53U | 0.72
A2G G53A | 0.66
A2U C37A | 0.16
A2U U31C | 0.81
A2U U31A | 0.48
A2U G10U | 0.29
A2U G10A | 0.26
A2U C4U | 1.15
A2U A77G | 1.04
A3C U26A | 1.2
A3C U26C | 0.6
A3C U60C | 0.83
A2U U51A | 1.17
A2U U51G | 1.17
A2U U51C | 1.07
A2U U78C | 0.87
A2G U48C | 0.28
A2G U48A | 0.09
A2U G52C | 1.04
